Laboratory results from publication PMC7514066, “ICOS agonism by JTX-2011 (vopratelimab) requires initial T cell priming and Fc cross-linking for optimal T cell activation and anti-tumor immunity in preclinical models” (PLoS ONE, 2020).

Molecular target: T1, hB7-1-Fc (human, UniProt P33681 35-242)
T1 construct: human B7-1 (CD80), recombinant Fc fusion; also called rhB7-1; source: bought: R&D Systems
T1 sequence (looked up): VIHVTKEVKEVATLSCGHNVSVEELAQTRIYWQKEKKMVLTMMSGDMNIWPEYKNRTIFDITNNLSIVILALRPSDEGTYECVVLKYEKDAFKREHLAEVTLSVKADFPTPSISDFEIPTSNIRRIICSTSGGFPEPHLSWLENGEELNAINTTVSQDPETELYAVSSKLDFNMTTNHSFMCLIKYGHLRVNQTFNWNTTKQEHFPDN
Assay: BLI; ForteBio Octet; tested 'in a similar way' to the ICOS antibodies (there: antibody loaded on biosensors at 10 ug/mL, Fc protein in solution, dissociation in kinetics buffer: PBS with 0.1% BSA, 0.05% sodium azide, 0.02% Tween-20; global 1:1 fit); which partner was loaded is not said for this experiment
Conditions: both partners purified

Kd: 14 nM
B1: mCD28-Fc (Fc fusion, mouse, UniProt P31041 20-150, looked up)
chain: NKILVKQSPLLVVDSNEVSLSCRYSYNLLAKEFRASLYKGVNSDVEVCVGNGNFTYQPQFRSNAEFNCDGDFDNETVTFRLWNLHVNHTDIYFCKIEFMYPPPYLDNERSNGTIIHIKEKHLCHTQSSPKL
notes: mouse CD28, recombinant Fc fusion; source: bought: R&D Systems
